Biological target: T1, Recombinant human ROR1-Fc chimera (human, UniProt Q01973 30-406)
T1 construct: receptor tyrosine kinase-like orphan receptor 1 (ROR1), human; recombinant ROR1-Fc chimera, R&D Systems Cat. No. 9490-RO; also called receptor tyrosine kinase-like orphan receptor 1; recombinant ROR1; source: bought: R&D Systems (Cat. No. 9490-RO)
Experiment: SPR; Biacore X100; ROR1-Fc amine-coupled on a CM5 chip (~3,200 RU); protein analyte premixed with CS-E (CS-E:protein molar ratio 7:1), 30 μl/min, 120 s, dissociation 130 s, 25°C; 50 mM Tris-HCl pH 7.5
Details: both partners purified

T1 sequence (Q01973 30-406, change not shown): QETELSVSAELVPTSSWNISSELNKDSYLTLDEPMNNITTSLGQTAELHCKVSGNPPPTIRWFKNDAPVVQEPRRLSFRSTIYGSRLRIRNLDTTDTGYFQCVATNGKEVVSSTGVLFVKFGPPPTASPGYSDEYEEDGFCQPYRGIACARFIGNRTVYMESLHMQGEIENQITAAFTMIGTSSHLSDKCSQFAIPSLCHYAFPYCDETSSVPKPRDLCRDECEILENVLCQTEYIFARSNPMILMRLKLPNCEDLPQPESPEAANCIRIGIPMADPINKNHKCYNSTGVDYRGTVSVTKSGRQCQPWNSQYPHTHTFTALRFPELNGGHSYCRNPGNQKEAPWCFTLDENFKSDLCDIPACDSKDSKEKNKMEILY

B1: recombinant human DKK1 (ligand, UniProt O94907 32-266, looked up)
chain: TLNSVLNSNAIKNLPPPLGGAAGHPGSAVSAAPGILYPGGNKYQTIDNYQPYPCAEDEECGTDEYCASPTRGGDAGVQICLACRKRRKRCMRHAMCCPGNYCKNGICVSSDQNHFRGEIEETITESFGNDHSTLDGYSRRTTLSSKMYHTKGQEGSVCLRSSDCASGLCCARHFWSKICKPVLKEGQVCTKHRRKGSHGLEIFQRCYCGEGLSCRIQKDHHQASNSSRLHTCQRH
notes: Dickkopf-1 (DKK1), human, recombinant, R&D Systems Cat. No. 5439-DK/CF; also called Dickkopf-1; source: bought: R&D Systems (Cat. No. 5439-DK/CF)
binding result: binds

Reference: PMC9194504, “Chondroitin Sulfates Control Invasiveness of the Basal-Like Breast Cancer Cell Line MDA-MB-231 Through ROR1” (Frontiers in Oncology, 2022)
